Assay results published in US20130089875A1.

Columns and labels:
[1] = molecular target: PEGylated insulin-like-growth-factor I (human) (UniProt P05019); experiment: sandwich ELISA: PEG-IGF-I at 2.00 ng/ml captured by biotinylated anti-PEG antibody on Streptavidin plate; dig-IGFBP-4 at 100 ng/ml; anti-digoxygenin-HRP/ABTS
[2] = molecular target: PEGylated insulin-like-growth-factor I (human) (UniProt P05019); experiment: sandwich ELISA: PEG-IGF-I at 0.50 ng/ml captured by biotinylated anti-PEG antibody on Streptavidin plate; dig-IGFBP-4 at 100 ng/ml; anti-digoxygenin-HRP/ABTS
[3] = molecular target: PEGylated insulin-like-growth-factor I (human) (UniProt P05019); experiment: sandwich ELISA: PEG-IGF-I at 0.13 ng/ml captured by biotinylated anti-PEG antibody on Streptavidin plate; dig-IGFBP-4 at 100 ng/ml; anti-digoxygenin-HRP/ABTS; mean of three
[4] = molecular target: PEGylated insulin-like-growth-factor I (human) (UniProt P05019); experiment: sandwich ELISA: PEG-IGF-I at 0.13 ng/ml captured by biotinylated anti-PEG antibody on Streptavidin plate; dig-IGFBP-4 at 100 ng/ml; anti-digoxygenin-HRP/ABTS
[5] = molecular target: PEGylated insulin-like-growth-factor I (human) (UniProt P05019); experiment: sandwich ELISA: PEG-IGF-I at 0.06 ng/ml captured by biotinylated anti-PEG antibody on Streptavidin plate; dig-IGFBP-4 at 100 ng/ml; anti-digoxygenin-HRP/ABTS; mean of three
[6] = molecular target: PEGylated insulin-like-growth-factor I (human) (UniProt P05019); experiment: sandwich ELISA: PEG-IGF-I at 0.25 ng/ml captured by biotinylated anti-PEG antibody on Streptavidin plate; dig-IGFBP-4 at 100 ng/ml; anti-digoxygenin-HRP/ABTS; mean of three
[7] = molecular target: PEGylated insulin-like-growth-factor I (human) (UniProt P05019); experiment: sandwich ELISA: PEG-IGF-I at 2.00 ng/ml captured by biotinylated anti-PEG antibody on Streptavidin plate; dig-IGFBP-4 at 100 ng/ml; anti-digoxygenin-HRP/ABTS; mean of three
[8] = molecular target: PEGylated insulin-like-growth-factor I (human) (UniProt P05019); experiment: sandwich ELISA: PEG-IGF-I at 1.00 ng/ml captured by biotinylated anti-PEG antibody on Streptavidin plate; dig-IGFBP-4 at 100 ng/ml; anti-digoxygenin-HRP/ABTS; mean of three
[9] = molecular target: PEGylated insulin-like-growth-factor I (human) (UniProt P05019); experiment: sandwich ELISA: PEG-IGF-I at 0.03 ng/ml captured by biotinylated anti-PEG antibody on Streptavidin plate; dig-IGFBP-4 at 100 ng/ml; anti-digoxygenin-HRP/ABTS; mean of three
[10] = molecular target: PEGylated insulin-like-growth-factor I (human) (UniProt P05019); experiment: sandwich ELISA: PEG-IGF-I at 0.03 ng/ml captured by biotinylated anti-PEG antibody on Streptavidin plate; dig-IGFBP-4 at 100 ng/ml; anti-digoxygenin-HRP/ABTS
[11] = molecular target: PEGylated insulin-like-growth-factor I (human) (UniProt P05019); experiment: sandwich ELISA: PEG-IGF-I at 0.50 ng/ml captured by biotinylated anti-PEG antibody on Streptavidin plate; dig-IGFBP-4 at 100 ng/ml; anti-digoxygenin-HRP/ABTS; mean of three
[12] = molecular target: PEGylated insulin-like-growth-factor I (human) (UniProt P05019); experiment: sandwich ELISA: PEG-IGF-I at 0.06 ng/ml captured by biotinylated anti-PEG antibody on Streptavidin plate; dig-IGFBP-4 at 100 ng/ml; anti-digoxygenin-HRP/ABTS
[13] = molecular target: PEGylated insulin-like-growth-factor I (human) (UniProt P05019); experiment: sandwich ELISA: PEG-IGF-I at 1.00 ng/ml captured by biotinylated anti-PEG antibody on Streptavidin plate; dig-IGFBP-4 at 100 ng/ml; anti-digoxygenin-HRP/ABTS
[14] = molecular target: PEGylated insulin-like-growth-factor I (human) (UniProt P05019); experiment: sandwich ELISA: PEG-IGF-I at 0.25 ng/ml captured by biotinylated anti-PEG antibody on Streptavidin plate; dig-IGFBP-4 at 100 ng/ml; anti-digoxygenin-HRP/ABTS

B1: digoxygenylated insulin-like-growth-factor-binding-protein-4 (protein)
chain: DEAIHCPPCSEEKLARCRPPVGCEELVREPGCGCCATCALGLGMPCGVYTPRCGSGLRCYPPRGVEKPLHTLMHGQGVCMELAEIEAIQESLQPSDKDEGDHPNNSFSPCSAHDRRCLQKHFAKIRDRSTSGGKMKVNGAPREDARPVPQGSCQSELHRALERLAASQSRTHEDLYIIPIPNCDRNGNFHPKQCHPALDGQRGKCWCVDRKTGVKLPGGLEPKGELDCHQLADSFRE
modifications: digoxigenin coupled through digoxigenin 3-O-methylcarbonyl-epsilon-aminocaproic acid-N-hydroxysuccinimide ester (amine-reactive), molar ratio 1:5; positions not given
[1]
  OD (absorption signal), Sample No. 1: 2.04 OD
  OD (absorption signal), Sample No. 2: 2.06 OD
  OD (absorption signal), Sample No. 3: 2 OD
[2]
  OD (absorption signal), Sample No. 1: 1.21 OD
  OD (absorption signal), Sample No. 2: 1.25 OD
  OD (absorption signal), Sample No. 3: 1.22 OD
[3]
  OD (absorption signal), mean: 0.434 OD
[4]
  OD (absorption signal), Sample No. 1: 0.439 OD
  OD (absorption signal), Sample No. 2: 0.428 OD
  OD (absorption signal), Sample No. 3: 0.436 OD
[5]
  OD (absorption signal), mean: 0.248 OD
[6]
  OD (absorption signal), mean: 0.752 OD
[7]
  OD (absorption signal), mean: 2.03 OD
[8]
  OD (absorption signal), mean: 1.69 OD
[9]
  OD (absorption signal), mean: 0.15 OD
[10]
  OD (absorption signal), Sample No. 1: 0.141 OD
  OD (absorption signal), Sample No. 2: 0.159 OD
  OD (absorption signal), Sample No. 3: 0.149 OD
[11]
  OD (absorption signal), mean: 1.23 OD
[12]
  OD (absorption signal), Sample No. 1: 0.25 OD
  OD (absorption signal), Sample No. 2: 0.252 OD
  OD (absorption signal), Sample No. 3: 0.243 OD
[13]
  OD (absorption signal), Sample No. 1: 1.66 OD
  OD (absorption signal), Sample No. 2: 1.66 OD
  OD (absorption signal), Sample No. 3: 1.73 OD
[14]
  OD (absorption signal), Sample No. 1: 0.757 OD
  OD (absorption signal), Sample No. 2: 0.734 OD
  OD (absorption signal), Sample No. 3: 0.766 OD
